Measurements published in the nanobody polyreactivity screen of Harvey et al. (2022).

test: yeast display, Sf9 membrane polyspecificity reagent, FACS + sequencing; frameworks hold sequencing errors
Summary of the method: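 A synthetic nanobody library was expressed on Saccharomyces cerevisiae BJ5465 by galactose induction for 36–48 hours. The library was stained for 1 hour at 4 °C with 10% biotinylated, detergent-solubilized Sf9 membrane reagent and enriched with streptavidin microbeads before FACS. Low and high (top ~1%) gates were set on anti-HA fluorescence for expression and streptavidin fluorescence for reagent binding, and each polyreactivity label reflects the gate of origin.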

| Sequence | polyreactivity (PSR sort gate) |
| --- | --- |
| QVQLVESGGGLVQAGGSLRLSCAASGRTFPYYAMGWYRQAPGKERELVAAISSSGGSTYYADSVKGRFTISRDNAKYTVYLQMNSLKPEDTAVYYCAAVYQFIKWGDRYEYWGQGTQVTVSS | high polyreactivity |
| QVQLVESGGGLVQAGGSLRLSCAASGRTFPYYAMGWYRQAPGKERELVAAITSGGSTYYADSVKGRFTISRDNAKNTVYLQMNSLKPEDTAVYYCNALLGYYRWRRPVDYSYGSWGQGTQVTVSS | high polyreactivity |
| QVQLVESGGGLVQAGGSLRLSCAASGRTFPYYAMGWYRQATGKERELVARIRSDGSTNYADSVKGRFTISRDNANNTVYLQMNSLKPEDTAVYYCAGKPYPSLFFHYGYWGQCTQVTVSS | low polyreactivity |
| QVQLVESGGGLVQAGGSLRLSCAASGRTFPYYTMGWYREAPGKERELVAAIDGSGDNTYYADSVKGRFTISRDNAKNTLYLHMNSLKPEHTAVYYCTADTGLGTRDFEKRDYWGQGTQVTVSS | low polyreactivity |
| QVQLVESGGGLVQAGGSLRLSCAASGRTFPYYTMGWYRQAPGKERELVAAIDGSGDNTYYADSVKGRFTISRDYAKNTVYLQMNSLKPEDTAVYYCTAEQWGSLDYWGQGTQVTVSA | low polyreactivity |
| QVQLVESGGGLVQAGGSLRLSCAASGRTFPYYTMGWYRQAPGKERELVAAITSGGSTHYADSVKGRFTISRDNAKNTVYLQMNSLKPEDTAVYYCAADLFYHSYGYEYWGQGTQVTVSS | low polyreactivity |
| QVQLVESGGGLVQAGGSLRLSCAASGRTFPYYVMGWYRQAPGKERELVAAINSGGRTNYADSVKGRFTISRDNAKNTVYLQMNSLKPEETAVYYCTKRGHPARLGYYYWGQGTQVTGSS | low polyreactivity |
| QVQLVESGGGLVQAGGSLRLSCAASGRTFQDNAMVWYRQAPGKEREFVAAINNSGGNTYYADSVKGRFTISRDNAKNTVYLQMNSLKPEDTAVYYCNARHTWHQTYDYWGQGTQVTVSS | low polyreactivity |
| QVQLVESGGGLVQAGGSLRLSCAASGRTFQFYTMGWYRQAPGKERELVAVITVSSAATFYADTVKGRFTISRDNAKNTVSLQMNSLKPEDTAVYYCAAGLVLIVGMDSWGQGTQVTVSS | low polyreactivity |
| QVQLVESGGGLVQAGGSLRLSCAASGRTFQINAMGWYRQAPGKERELVAAITWSGGSTYYADSVKGRFTISRDNAKNTVYLQMNSLKPEDTAVYYCNKRYRAYATLNLIAGYNYWGQGTQVTVSS | low polyreactivity |
| QVQLVESGGGLVQAGGSLRLSCAASGRTFQNYAMGWYRQAPGKERELVADITSGGSTYADSVKGRFTISRDNAKNTVYLQMNSLKPEDTAVYYCNADRTYPEPAEYYYWGQGTQVTVSS | low polyreactivity |
| QVQLVESGGGLVQAGGSLRLSCAASGRTFQPYAMGWYRQAPGKERELVASISRSGGRTYYADSVKGRFTISRDNAKNTVYLQMNSLKPEDTAVYYCAADIPYTRSIKYYYWGQGTQVTVSS | high polyreactivity |
| QVQLVESGGGLVQAGGSLRLSCAASGRTFQRYAMGWYRQAPGKERELVAAISRGGITYYADSVKGRFTISRDNAKNTVYLQMNSLKPEDTAVYYCAALYRYYHESSPFDYWGQGTQVTVSS | high polyreactivity |
| QVQLVESGGGLVQAGGSLRLSCAASGRTFQRYAMVWYRQAPGKERELVPAITSRGGSTYYSDSVKGRFTISRDNAKNTVYLQMNSLKPEDTAVYYCNARSRRTLSEPQSEMDYWGQGTQVTVSS | high polyreactivity |
| QVQLVESGGGLVQAGGSLRLSCAASGRTFQWYTMGWYRQAPGKERELVAAISLSGTSTYYADSVKGRFTISRDNAKNTVYLQMNSLNPEDTAVYYCAAEDIGRYYRLDYWGQGTQVTVSS | low polyreactivity |
| QVQLVESGGGLVQAGGSLRLSCAASGRTFQYNAMGWYRQAPGKEREFVAGITSIGGRTYYADSVKGRFTISRDNAKNTVYLQMNSLKPEETAVYYCAAVRGLAVGYDYWGQGTQVTVSS | high polyreactivity |
| QVQLVESGGGLVQAGGSLRLSCAASGRTFQYYAMGWYRQAPGKERELVAAISSGGSTYYADSVKGRFTISRDNAKNTVYLQMNSLKPEDTAVYYCTARWGYRRGYWGQGTQVTVSS | high polyreactivity |
| QVQLVESGGGLVQAGGSLRLSCAASGRTFQYYAVGWYRQAPGKERELVAAITSGGSTYYADSVKGRFTISRDNAKNTVYLQMNSLKPEDTAVYYCAAKRNVQLGYTVQSLYDYWGLGTQVTVSS | low polyreactivity |
| QVQLVESGGGLVQAGGSLRLSCAASGRTFRAYAMGWYRQAPGKERELVAAITASGTSTYYADSVKGRFTISRDNAKNTVYLQMNSLKPEDTAVYYCARGSWRHFRLYGFDYWGQGTQVTVSS | low polyreactivity |
| QVQLVESGGGLVQAGGSLRLSCAASGRTFRENAMGWYRQAPGKERELVAAISWRAGSTYYADSVKGRFTISRDNAKNTVYLQMNSLKPEDTAVYYCAAKYTVSFYLWGTFNYWGQGTQVTVSS | high polyreactivity |

| Sequence | polyreactivity (PSR sort gate) |
| --- | --- |
| QVQLVESGGGLVQAGGSLRLSCAASGRTFRFTAMGWYRQAPGKERELVAAISFRGGSTYYADSVKGRFTISRDNAKNTVYLQMNSLKPEDTAVYYCAARARTGTYRDMYYWGQGTQVTVSS | high polyreactivity |
| QVQLVESGGGLVQAGGSLRLSCAASGRTFRFYAMGWYRQAPGKERELVAAISSGGSTYYADSVKGRFTISRDNAKNTVYLQLNSLKAEDTAVYYCAVKQRDKFAGGRNDYWGQGTQVTVSS | high polyreactivity |
| QVQLVESGGGLVQAGGSLRLSCAASGRTFRFYAMGWYRQAPGKERELVAAISYSGGSTYYADSVKGRFTISRDNAKNTVYLQMNSLKPEDTAVYYCNARYRLGSPVGYNYYTGYDYWGQGTQVTVSS | high polyreactivity |
| QVQLVESGGGLVQAGGSLRLSCAASGRTFRFYAMGWYRQAPGKERELVASISSSGGSTYYADSVKGRFTISRDNAKNTVYLQMNSLKPEDTAVYYCNADVTNWEDDYYYWGQGTQVTVSS | high polyreactivity |
| QVQLVESGGGLVQAGGSLRLSCAASGRTFRGNAMGWYRQAPGKERELVAAGGSTYYADSVKGRFTISRDNAKNTVYLQINSLKPEDTAVYYCAAALGFSRYSWFCYGYWGQGTQVTGSS | low polyreactivity |
| QVQLVESGGGLVQAGGSLRLSCAASGRTFRGNAMGWYRQAPGKERELVAAISWRGTSTYYADSVKGRFTISRDNAKNTVYLQMNSLKPEDTAVYYCNTQRQLGERFYDRSRQGDYWGQGTQVTVSS | high polyreactivity |
| QVQLVESGGGLVQAGGSLRLSCAASGRTFRGNAMGWYRQAPGKESELVAVITASGSTTYADSVKGRFTISRDNAKNTVYLQMNSLKPEDTAVYYCAKYVPWYTLWLGGTDRDYWGQGTQVTVSS | low polyreactivity |
| QVQLVESGGGLVQAGGSLRLSCAASGRTFRGYAMGWYRQAPGKERELVAAISSSGGRTYYADSVKGRFTISRDNAKNTVYLQMNSLKPEDTAVYYCAAAVTLSPAQYGYWGQGTQVTVSS | high polyreactivity |
| QVQLVESGGGLVQAGGSLRLSCAASGRTFRGYAMGWYRQAPGKERELVAAITSGGSTNYADSVKGRFTISRDHAKNSVYLQMNSLKPEDTAVDYCNRDTSKYGLWRYIYDYWGQGTQVTVSS | low polyreactivity |
| QVQLVESGGGLVQAGGSLRLSCAASGRTFRGYAMGWYRQAPGKERELVAAITSSGGRTYYADSVKGRFTISRDNAKNTVYLQMNSLKPEDTAVYYCAKDYYSPRGYDYWGQGTQVTVSS | high polyreactivity |
| QVQLVESGGGLVQAGGSLRLSCAASGRTFRGYSMGWYRQAPGKERELVAAISSSGGRTYYADSVKGRFTISRDNAKNTVYLQMNSLKPEDTAVYYCNAYYWSATWYFAAWDYYYWGQGTQVTVSS | high polyreactivity |
| QVQLVESGGGLVQAGGSLRLSCAASGRTFRHYAMGWYRQAPGKEREFVAAISRSGGSTRYADSVKGRFTISRDNAKNTVYLQMNSLKPEDTAVYYCAATSRSYNDYDYWGQGTQVTVSS | high polyreactivity |
| QVQLVESGGGLVQAGGSLRLSCAASGRTFRIYALGWYRQAPGTERELVATIDSGGSTNYADSVKGRFTISRDNAKNTVYFQMNSLKPEDTAVYYCNAEDKPWYYLAGQAEYDSWGQGTQVTVSS | low polyreactivity |
| QVQLVESGGGLVQAGGSLRLSCAASGRTFRIYAMGWYRQAPGKERELVAAISRSSTSTYYADSVKGRFTISRDNAKNTVYLQMNSLKPEDTAVYYCAAVVTVQYSQPYDHWGQGTQVTVSS | high polyreactivity |
| QVQLVESGGGLVQAGGSLRLSCAASGRTFRIYAMGWYRQAPGKERELVASISWSGGSTYYADSVKGRFTISRDNAKNTVYLQMNSLKPEDTAVYYCAADYPFIALYDYWGQGTQVTVSS | low polyreactivity |
| QVQLVESGGGLVQAGGSLRLSCAASGRTFRKKAMGWYRRAPGKERELVAAISASGTSTYYADSVKGRFTNSRDNAKISVYLQMISLKPEDTAVYYCAARSYGIYDYWGQGSQVTVSS | high polyreactivity |
| QVQLVESGGGLVQAGGSLRLSCAASGRTFRKYAMGWSRQAPGKERELVAAINRGGTTKYADSVKGRFTISRDNAKNTVYLQMNSLKPEDTAVYYCNAAYGGVFFYAYDYWGQGTQVTVSS | low polyreactivity |
| QVQLVESGGGLVQAGGSLRLSCAASGRTFRKYGMGWYRQAPGKERELVAAITRSGGSTYYADSVKGRFTISRDNAKHTVYLQMNSLKPEDTSVSYCARSPVVVGSFLSYDYWGQGTQVTVSS | high polyreactivity |
| QVQLVESGGGLVQAGGSLRLSCAASGRTFRLYALGWYRQAPGKERELVAAITRGGRTNYADSVTGRFTISRDNAKNTVYLQMNSLKPEDTAVYYCAARYVERHTDYYYWGQGTQVTVSS | low polyreactivity |
| QVQLVESGGGLVQAGGSLRLSCAASGRTFRLYAMGWYRQAPGKERELVAAISARGSSTYYADSVKGRFTISRDNAKNTVYLQMNSLKPEDTAVYYCAAKRSYPYGSGYWGQGTQVTVSS | high polyreactivity |
